Results on ten molecules are retold here after paper doi:10.1101/2025.07.21.665923 (bioRxiv, 2025).

Test [1] has as its target N-terminally biotinylated URAT1 peptide (human). The test can be described thus: SPR. Background: In SPR one partner is held on a chip, and binding of the other changes the refractive index at the surface.
Test [2] deals with URAT1 peptide (15 C-terminal residues of human URAT1), TAMRA-labelled (human). Put plainly: fluorescence polarisation. (In general: In fluorescence polarisation assays a small probe gives low polarisation when free and higher when bound to something large.)
For test [3], the target named is NaPi-IIa peptide (15 C-terminal residues of NaPi-IIa), TAMRA-labelled (human (identical in mouse)). Put plainly: fluorescence polarisation.
The target of test [4] is T1, full-length human PDZK1 (NHE3 regulatory factor 3, NHERF3) (human, UniProt Q5T2W1 1-519).
T1 sequence (looked up): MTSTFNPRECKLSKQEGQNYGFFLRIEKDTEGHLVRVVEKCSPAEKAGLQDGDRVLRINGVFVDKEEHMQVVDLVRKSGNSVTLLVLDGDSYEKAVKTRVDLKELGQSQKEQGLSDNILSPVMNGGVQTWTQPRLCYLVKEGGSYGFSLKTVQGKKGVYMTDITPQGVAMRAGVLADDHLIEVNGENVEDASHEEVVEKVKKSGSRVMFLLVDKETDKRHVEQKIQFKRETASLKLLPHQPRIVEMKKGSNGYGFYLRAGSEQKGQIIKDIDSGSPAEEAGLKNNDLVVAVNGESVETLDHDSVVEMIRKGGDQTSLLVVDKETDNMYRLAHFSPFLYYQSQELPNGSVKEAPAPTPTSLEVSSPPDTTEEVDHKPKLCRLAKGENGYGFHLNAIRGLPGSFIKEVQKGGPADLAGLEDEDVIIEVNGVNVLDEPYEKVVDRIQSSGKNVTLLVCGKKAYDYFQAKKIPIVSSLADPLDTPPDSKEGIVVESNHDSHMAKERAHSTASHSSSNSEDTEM
The test can be described thus: SEC. In general terms: SEC sorts molecules by how far they enter the pores of the column.

The target of test [5] is T1, full-length human PDZK1 (NHE3 …). Put plainly: SEC. This is another data set of the same source.
Test [6] has the same target. Put plainly: fluorescence polarisation.
Another test concerns the target T2, full-length mouse Pdzk1 (mouse, UniProt Q9JIL4 1-519).
T2 sequence (looked up): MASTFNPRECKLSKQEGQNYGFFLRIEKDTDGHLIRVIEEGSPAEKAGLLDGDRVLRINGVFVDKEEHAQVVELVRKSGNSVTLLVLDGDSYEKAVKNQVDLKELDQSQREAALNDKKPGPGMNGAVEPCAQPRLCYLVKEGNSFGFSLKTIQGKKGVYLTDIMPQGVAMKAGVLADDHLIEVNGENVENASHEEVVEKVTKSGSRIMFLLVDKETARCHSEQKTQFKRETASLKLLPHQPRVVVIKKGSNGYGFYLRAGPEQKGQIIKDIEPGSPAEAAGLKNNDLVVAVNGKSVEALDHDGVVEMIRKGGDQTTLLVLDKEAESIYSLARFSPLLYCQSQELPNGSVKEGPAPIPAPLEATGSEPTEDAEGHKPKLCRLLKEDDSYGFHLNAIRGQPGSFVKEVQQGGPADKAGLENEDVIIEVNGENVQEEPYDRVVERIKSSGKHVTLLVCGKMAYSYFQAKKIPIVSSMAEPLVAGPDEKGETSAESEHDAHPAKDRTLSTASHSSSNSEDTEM
The test can be described thus: fluorescence polarisation.

For the next test, the target named is T3, full-length mouse Nherf1 (mouse, UniProt P70441 1-355).
T3 sequence (looked up): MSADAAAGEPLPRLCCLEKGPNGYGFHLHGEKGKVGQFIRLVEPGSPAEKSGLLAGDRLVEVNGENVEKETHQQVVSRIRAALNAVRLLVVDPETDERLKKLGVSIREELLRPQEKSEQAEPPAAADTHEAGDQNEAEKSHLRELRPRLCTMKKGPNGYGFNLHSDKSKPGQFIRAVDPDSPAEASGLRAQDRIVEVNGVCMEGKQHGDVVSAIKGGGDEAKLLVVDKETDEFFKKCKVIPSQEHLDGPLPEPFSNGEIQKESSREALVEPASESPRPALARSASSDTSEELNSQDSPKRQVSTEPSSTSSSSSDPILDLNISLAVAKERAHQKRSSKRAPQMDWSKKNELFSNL
Put plainly: fluorescence polarisation.

The next test has as its target T4, full-length human NHERF1 (human, UniProt O14745 1-358).
T4 sequence (looked up): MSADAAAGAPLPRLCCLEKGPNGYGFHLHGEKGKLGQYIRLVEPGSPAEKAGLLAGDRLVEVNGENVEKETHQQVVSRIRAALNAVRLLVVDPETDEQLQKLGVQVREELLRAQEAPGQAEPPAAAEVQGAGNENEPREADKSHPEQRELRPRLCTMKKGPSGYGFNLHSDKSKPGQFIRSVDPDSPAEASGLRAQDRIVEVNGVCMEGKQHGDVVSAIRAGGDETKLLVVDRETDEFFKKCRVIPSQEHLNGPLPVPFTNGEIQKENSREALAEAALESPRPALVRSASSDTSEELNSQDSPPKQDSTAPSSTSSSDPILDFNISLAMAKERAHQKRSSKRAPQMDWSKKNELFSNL
The test can be described thus: fluorescence polarisation.

Where two headings read alike, the source gives them in different places. Where no end group is shown, it is not given here. TAMRA = tetramethylrhodamine Some results are limits rather than exact numbers.

In general, Kd refers to a measure of binding affinity in units of concentration. Low readings indicate higher affinity, high ones lower affinity. By koff is commonly meant the first-order rate constant of dissociation. One may read the kon as the second-order rate constant of association. In test [1], “PDZ1 domain of human PDZK1 (3PDZ1), tag-less (domain or fragment)” gave an equilibrium dissociation constant (Kd) of 1.1 µM, a koff of 0.494 s⁻¹ and an association rate constant (kon) of 448000 M⁻¹ s⁻¹. Further, the Kd in test [2] amounted to 0.16 µM. The molecule also returned a Kd in test [3] of 12.5 µM.
With “PDZ2 domain of human PDZK1 (3PDZ2), C-terminal His8-tag (domain or fragment)”, in test [2], the Kd worked out at 22.1 µM.
Take “PDZ4 domain of human PDZK1 (3PDZ4), C-terminal His8-tag (domain or fragment)”: in [1], the Kd came out at 1.78 µM, the dissociation rate constant (koff) came to 0.631 s⁻¹ and the kon was determined as 354000 M⁻¹ s⁻¹. Besides, the Kd in test [2] is 1.35 µM.
As to “PDZ3 domain of human PDZK1 (3PDZ3), C-terminal His8-tag (domain or fragment)”, the Kd in test [2] is > 200 µM.
“PDZ1 domain of human NHERF1 (1PDZ1), C-terminal His8-tag (domain or fragment)”: the Kd in test [3] is 4.4 µM.
In the case of “PDZ2 domain of human NHERF1 (1PDZ2), C-terminal His8-tag (domain or fragment)”, the Kd in test [3] is > 170 µM.
As for THGTLGNSVLKSTQF (not fully specified) [URAT1 peptide fused to the C-terminus of enhanced green fluorescent protein (GFP^URAT1)], the figures for the “stoichiometry N” value in test [4] and in test [5] were 1.4 GFP^URAT1 per PDZK1 at the peak maximum and 1.5 GFP^URAT1 per PDZK1 at the peak maximum, respectively.
For {TAMRA}-SPRLALPAHHNATRL [NaPi-IIa peptide (15 C-terminal residues of NaPi-IIa), TAMRA-labelled], the Kd in [6] is 8.1 µM; with full-length mouse Pdzk1, 4 µM; in the test with full-length mouse Nherf1, 4.9 µM; with full-length human NHERF1, 4 µM.
{TAMRA}-THGTLGNSVLKSTQF [URAT1 peptide (15 C-terminal residues of human URAT1), TAMRA-labelled]: in the test with full-length human NHERF1, the Kd was > 70 µM.
{TAMRA}-THDTPDGSILMSTRL [Urat1 peptide (15 C-terminal residues of murine Urat1), TAMRA-labelled]: the Kd with full-length mouse Pdzk1 amounted to 0.026 µM; with full-length mouse Nherf1, 0.59 µM.
